# Numbering of substitutions follows the chain as printed.
# T1: FcγRIIB/C (CD32b/c) (FcγRIIB) (R&D Systems) (UniProt P31994 46-217)
# T1 chain: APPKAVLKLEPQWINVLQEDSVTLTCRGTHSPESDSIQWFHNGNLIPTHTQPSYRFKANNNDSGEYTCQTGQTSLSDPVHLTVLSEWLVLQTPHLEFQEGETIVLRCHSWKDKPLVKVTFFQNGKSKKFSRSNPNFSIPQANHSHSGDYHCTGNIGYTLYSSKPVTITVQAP
# B1: X3-KS-DF HM297-H5 (antibody)
# chain 1: QVQLVQSGPEVKKPGASVKIPCKASGYTFTDYNVDWVRQVPGQGLEWMGDIDPNNGGTIYNQKFKDRVTMTVDKSTRTAYMELRSLRSDDTAVYYCARWRGAMDYWGQGTLVTVSSASTKGPSVFPLAPSSKSTSGGTAALGCLVKDYFPEPVTVSWNSGALTSGVHTFPAVLQSSGLYSLSSVVTVPSSSLGTQTYICNVNHKPSNTKVDKKVEPKSCDKTHTCPPCPAPELLGGPDVFLFPPKPKDTLMISRTPEVTCVVVDVGDEDPEVKFNWYVDGVEVHNAKTKPREEQYNSTYRVVSVLTVLHQDWLNGKEYKCAVSNKALPAPIEKTISKAKGQPREPQVYTLPPSRDELTKNQVSLTCLVKGFYPSDIAVEWESNGQPENNYKTTPPVLDSDGSFFLYSKLTVDKSRWQQGNVFSCSVMHEALHNHYTQKSLSLSPGK
# chain 2: DIQMTQSPSSLSASVGDRVTITCRASQDIDNYLKWYQQKPDGTVKLLIYDTSRLHSGVPSRFSGSGSGTDYTLTISSLKQEDFATYYCQQGYTLPWTFGQGTKLEIKRTVAAPSVFIFPPSDEQLKSGTASVVCLLNNFYPREAKVQWKVDNALQSGNSQESVTEQDSKDSTYSLSSTLTLSKADYEKHKVYACEVTHQGLSSPVTKSFNRGEC
# B2: X3-KS-DF HM242-D3 (antibody)
# chain 1: QVQLVQSGPEVKKPGASVKVVCKASGYTFTSYYIQWVRQVPGQGLEWMGWIYPGDGTTKYNEKFKGRVTMTIDTSTSTAYMELRSLRSDDTAVYYCASYYGSYFDYWGQGTLVTVSSASTKGPSVFPLAPSSKSTSGGTAALGCLVKDYFPEPVTVSWNSGALTSGVHTFPAVLQSSGLYSLSSVVTVPSSSLGTQTYICNVNHKPSNTKVDKKVEPKSCDKTHTCPPCPAPELLGGPDVFLFPPKPKDTLMISRTPEVTCVVVDVGDEDPEVKFNWYVDGVEVHNAKTKPREEQYNSTYRVVSVLTVLHQDWLNGKEYKCAVSNKALPAPIEKTISKAKGQPREPQVYTLPPSRDELTKNQVSLTCLVKGFYPSDIAVEWESNGQPENNYKTTPPVLDSDGSFFLYSKLTVDKSRWQQGNVFSCSVMHEALHNHYTQKSLSLSPGK
# chain 2: not shown
# B3: X2-K-DF HM242-C3 (antibody)
# chain 1: B2 chain 1 with R38K, V40R, M48I, T74K, S77R, G236D, D239S, G267S
# chain 2: not shown
# B4: X3-KS-DF HM242-C3 (antibody)
# chain 1: B2 chain 1 with R38K, V40R, M48I, T74K, S77R
# chain 2: not shown
# B5: X4-K HM297-H5 (antibody)
# chain 1: B1 chain 1 with G266S, L327Y, I331E
# chain 2: B1 chain 2
# B6: X2-K HM297-H5 (antibody)
# chain 1: B1 chain 1 with G235D, D238S, G266S
# chain 2: B1 chain 2
# B7: X2-K HM268-K8 (antibody)
# chain 1: QVQLVQSGPEVKKPGASVKVVCKTSGYTFTSYYIQWLKQRPGQGLEWIGWIYFGDASTKYNEKFKGRVTMTADKSTSTAYMELRSLRSDDTAVYYCASYYGSYFDYWGQGTTVTVSSASTKGPSVFPLAPSSKSTSGGTAALGCLVKDYFPEPVTVSWNSGALTSGVHTFPAVLQSSGLYSLSSVVTVPSSSLGTQTYICNVNHKPSNTKVDKKVEPKSCDKTHTCPPCPAPELLDGPSVFLFPPKPKDTLMISRTPEVTCVVVDVSDEDPEVKFNWYVDGVEVHNAKTKPREEQYNSTYRVVSVLTVLHQDWLNGKEYKCAVSNKALPAPIEKTISKAKGQPREPQVYTLPPSRDELTKNQVSLTCLVKGFYPSDIAVEWESNGQPENNYKTTPPVLDSDGSFFLYSKLTVDKSRWQQGNVFSCSVMHEALHNHYTQKSLSLSPGK
# chain 2: B1 chain 2 with D30S, K34N, D50S, K79Q, Q80P, Y92S, W96F
# B8: X4-K HM268-K8 (antibody)
# chain 1: B7 chain 1 with D236G, S239D, L328Y, I332E
# chain 2: B1 chain 2 with D30S, K34N, D50S, K79Q, Q80P, Y92S, W96F
# B9: X2-K HM242-D3 (antibody)
# chain 1: B2 chain 1 with G236D, D239S, G267S
# chain 2: not shown
# B10: X4-K HM242-C3 (antibody)
# chain 1: B2 chain 1 with R38K, V40R, M48I, T74K, S77R, G267S, L328Y, I332E
# chain 2: not shown
# B11: X4-K HM242-D3 (antibody)
# chain 1: B2 chain 1 with G267S, L328Y, I332E
# chain 2: not shown
# B12: X3-KS HM268-K8 (antibody)
# chain 1: B7 chain 1 with D236G, S239D, S267G
# chain 2: B1 chain 2 with D30S, K34N, D50S, K79Q, Q80P, Y92S, W96F
# B13: X3-KS HM297-H5 (antibody)
# chain 1: B1 chain 1
# chain 2: B1 chain 2
# B14: X3-KS HM242-C3 (antibody)
# chain 1: B2 chain 1 with R38K, V40R, M48I, T74K, S77R
# chain 2: not shown
# B15: X2-K HM242-C3 (antibody)
# chain 1: B2 chain 1 with R38K, V40R, M48I, T74K, S77R, G236D, D239S, G267S
# chain 2: not shown
# B16: X3-KS HM242-D3 (antibody)
# chain 1: B2 chain 1
# chain 2: not shown
# Biological target: T1, FcγRIIB/C (CD32b/c) (FcγRIIB) (R&D …)
# Assay: SPR
row,Binder,Kd
1,B1,1220 nM
2,B2,2540 nM
3,B3,1020 nM
4,B4,1170 nM

# Biological target: Fc gamma RIIIA/CD16a, CF (FcγRIIIA(V158)) (R&D Systems)
# Assay: SPR
# Sequence of Fc gamma RIIIA/CD16a, CF (FcγRIIIA(V158)) (R&D Systems) (chain, as listed by the source): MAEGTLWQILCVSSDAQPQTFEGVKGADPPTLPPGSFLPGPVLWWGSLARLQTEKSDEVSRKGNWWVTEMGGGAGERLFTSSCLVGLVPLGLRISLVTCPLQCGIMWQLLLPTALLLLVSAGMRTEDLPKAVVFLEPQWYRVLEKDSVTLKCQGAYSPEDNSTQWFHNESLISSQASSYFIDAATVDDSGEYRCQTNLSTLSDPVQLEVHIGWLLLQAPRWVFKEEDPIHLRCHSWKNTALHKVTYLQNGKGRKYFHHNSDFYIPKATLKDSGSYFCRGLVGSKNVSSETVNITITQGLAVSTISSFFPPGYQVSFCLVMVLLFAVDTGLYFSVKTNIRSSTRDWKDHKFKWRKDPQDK
row,Binder,Kd
1,B5,3030 nM
2,B6,5220 nM
3,B7,7560 nM
4,B8,236 nM
5,B9,4270 nM
6,B10,143 nM
7,B11,244 nM

# Biological target: T1, FcγRIIB/C (CD32b/c) (FcγRIIB) (R&D …)
# Assay: SPR
# Remark: another data set of the same source
row,Binder,Kd
1,B5,1250 nM
2,B6,1290 nM
3,B7,1650 nM
4,B12,2540 nM
5,B8,1050 nM
6,B13,1430 nM
7,B9,1250 nM
8,B14,1660 nM
9,B15,1210 nM
10,B10,606 nM
11,B16,2740 nM
12,B11,957 nM

# From patent US20240317859A1 (published 2024)
